Laboratory results published in patent US20140087995A1 (published 2014).
Numbered stars: 1 amine (or outer) side, 2 acyl side, 3 side chain; on linkers, the order of the positions; unused ones are H or OH. Bridge positions count the residues as written; N and C are the ends. Side chains are listed from the residue outwards. Ends that are not written are not given here. * marks the point of attachment. C20 diacid = O=C(O)CCCCCCCCCCCCCCCCCCC(=O)*; γGlu = O=C(O)[C@H](CCC(=O)[*:2])N[*:1]; AEEA = NCCOCCOCC(=O)O

T1: human amylin 3(a) receptor (human calcitonin receptor co-expressed with RAMP-3) (human, UniProt P30988 25-474; O60896 24-148, limits assumed)
T1 sequence (looked up) 1: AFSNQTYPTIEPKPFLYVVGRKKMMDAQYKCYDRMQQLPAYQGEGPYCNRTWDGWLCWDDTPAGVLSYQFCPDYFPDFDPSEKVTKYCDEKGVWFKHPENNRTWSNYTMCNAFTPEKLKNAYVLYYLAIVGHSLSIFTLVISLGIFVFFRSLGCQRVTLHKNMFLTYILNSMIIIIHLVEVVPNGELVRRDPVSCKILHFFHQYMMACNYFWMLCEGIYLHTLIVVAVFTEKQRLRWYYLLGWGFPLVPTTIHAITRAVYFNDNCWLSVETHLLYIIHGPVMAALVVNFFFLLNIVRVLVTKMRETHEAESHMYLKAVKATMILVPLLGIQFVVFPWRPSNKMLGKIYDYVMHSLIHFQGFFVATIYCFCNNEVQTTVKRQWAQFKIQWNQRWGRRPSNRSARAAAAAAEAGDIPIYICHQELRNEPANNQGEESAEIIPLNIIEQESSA
T1 sequence (looked up) 2: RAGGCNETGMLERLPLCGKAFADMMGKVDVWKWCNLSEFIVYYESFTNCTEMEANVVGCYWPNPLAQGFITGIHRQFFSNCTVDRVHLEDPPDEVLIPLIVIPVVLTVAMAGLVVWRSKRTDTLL

B1: N^ε1-[2-[2-[2-[[(4S)-4-carboxy-4-(19-carboxynonadecanoylamino)butanoyl]amino]ethoxy]ethoxy]acetyl]-[Thr14,Arg17,Pro21,Pro27,Pro31]-h-amylin (peptide)
peptide: K([AEEA-γGlu-C20 diacid])CNTATCATQRLATFLRHSSPNFGAIPSSTPVGSNTY-NH2
modifications: disulfide 2-7; N-terminus assumed
SMILES: CC[C@H](C)[C@H](NC(=O)[C@H](C)NC(=O)CNC(=O)[C@H](Cc1ccccc1)NC(=O)[C@H](CC(N)=O)NC(=O)[C@@H]1CCCN1C(=O)[C@H](CO)NC(=O)[C@H](CO)NC(=O)[C@H](Cc1c[nH]cn1)NC(=O)[C@H](CCCNC(=N)N)NC(=O)[C@H](CC(C)C)NC(=O)[C@H](Cc1ccccc1)NC(=O)[C@@H](NC(=O)[C@H](C)NC(=O)[C@H](CC(C)C)NC(=O)[C@H](CCCNC(=N)N)NC(=O)[C@H](CCC(N)=O)NC(=O)[C@@H](NC(=O)[C@H](C)NC(=O)[C@@H]1CSSC[C@H](NC(=O)[C@@H](N)CCCCNC(=O)COCCOCCNC(=O)CC[C@H](NC(=O)CCCCCCCCCCCCCCCCCCC(=O)O)C(=O)O)C(=O)N[C@@H](CC(N)=O)C(=O)N[C@@H]([C@@H](C)O)C(=O)N[C@@H](C)C(=O)N[C@@H]([C@@H](C)O)C(=O)N1)[C@@H](C)O)[C@@H](C)O)C(=O)N1CCC[C@H]1C(=O)N[C@@H](CO)C(=O)N[C@@H](CO)C(=O)N[C@H](C(=O)N1CCC[C@H]1C(=O)N[C@H](C(=O)NCC(=O)N[C@@H](CO)C(=O)N[C@@H](CC(N)=O)C(=O)N[C@H](C(=O)N[C@@H](Cc1ccc(O)cc1)C(N)=O)[C@@H](C)O)C(C)C)[C@@H](C)O
notes: also called compound 75
B2: N^ε1-[(4S)-4-carboxy-4-(19-carboxynonadecanoylamino)butanoyl]-[Arg17,Pro21,Pro27,Arg34]-h-amylin (peptide)
peptide: K([γGlu-C20 diacid])CNTATCATQRLANFLRHSSPNFGAIPSSTNVGRNTY-NH2
modifications: disulfide 2-7; N-terminus assumed
SMILES: CC[C@H](C)[C@H](NC(=O)[C@H](C)NC(=O)CNC(=O)[C@H](Cc1ccccc1)NC(=O)[C@H](CC(N)=O)NC(=O)[C@@H]1CCCN1C(=O)[C@H](CO)NC(=O)[C@H](CO)NC(=O)[C@H](Cc1c[nH]cn1)NC(=O)[C@H](CCCNC(=N)N)NC(=O)[C@H](CC(C)C)NC(=O)[C@H](Cc1ccccc1)NC(=O)[C@H](CC(N)=O)NC(=O)[C@H](C)NC(=O)[C@H](CC(C)C)NC(=O)[C@H](CCCNC(=N)N)NC(=O)[C@H](CCC(N)=O)NC(=O)[C@@H](NC(=O)[C@H](C)NC(=O)[C@@H]1CSSC[C@H](NC(=O)[C@@H](N)CCCCNC(=O)CC[C@H](NC(=O)CCCCCCCCCCCCCCCCCCC(=O)O)C(=O)O)C(=O)N[C@@H](CC(N)=O)C(=O)N[C@@H]([C@@H](C)O)C(=O)N[C@@H](C)C(=O)N[C@@H]([C@@H](C)O)C(=O)N1)[C@@H](C)O)C(=O)N1CCC[C@H]1C(=O)N[C@@H](CO)C(=O)N[C@@H](CO)C(=O)N[C@H](C(=O)N[C@@H](CC(N)=O)C(=O)N[C@H](C(=O)NCC(=O)N[C@@H](CCCNC(=N)N)C(=O)N[C@@H](CC(N)=O)C(=O)N[C@H](C(=O)N[C@@H](Cc1ccc(O)cc1)C(N)=O)[C@@H](C)O)C(C)C)[C@@H](C)O
notes: also called compound 79
B3: N^ε1-[(4S)-4-carboxy-4-(19-carboxynonadecanoylamino)butanoyl]-[Arg14,Arg17,Pro21,Pro27]-h-amylin (peptide)
peptide: K([γGlu-C20 diacid])CNTATCATQRLARFLRHSSPNFGAIPSSTNVGSNTY-NH2
modifications: disulfide 2-7; N-terminus assumed
SMILES: CC[C@H](C)[C@H](NC(=O)[C@H](C)NC(=O)CNC(=O)[C@H](Cc1ccccc1)NC(=O)[C@H](CC(N)=O)NC(=O)[C@@H]1CCCN1C(=O)[C@H](CO)NC(=O)[C@H](CO)NC(=O)[C@H](Cc1c[nH]cn1)NC(=O)[C@H](CCCNC(=N)N)NC(=O)[C@H](CC(C)C)NC(=O)[C@H](Cc1ccccc1)NC(=O)[C@H](CCCNC(=N)N)NC(=O)[C@H](C)NC(=O)[C@H](CC(C)C)NC(=O)[C@H](CCCNC(=N)N)NC(=O)[C@H](CCC(N)=O)NC(=O)[C@@H](NC(=O)[C@H](C)NC(=O)[C@@H]1CSSC[C@H](NC(=O)[C@@H](N)CCCCNC(=O)CC[C@H](NC(=O)CCCCCCCCCCCCCCCCCCC(=O)O)C(=O)O)C(=O)N[C@@H](CC(N)=O)C(=O)N[C@@H]([C@@H](C)O)C(=O)N[C@@H](C)C(=O)N[C@@H]([C@@H](C)O)C(=O)N1)[C@@H](C)O)C(=O)N1CCC[C@H]1C(=O)N[C@@H](CO)C(=O)N[C@@H](CO)C(=O)N[C@H](C(=O)N[C@@H](CC(N)=O)C(=O)N[C@H](C(=O)NCC(=O)N[C@@H](CO)C(=O)N[C@@H](CC(N)=O)C(=O)N[C@H](C(=O)N[C@@H](Cc1ccc(O)cc1)C(N)=O)[C@@H](C)O)C(C)C)[C@@H](C)O
notes: also called compound 83
B4: N^ε1-[(4S)-4-carboxy-4-(19-carboxynonadecanoylamino)butanoyl]-[Arg14,Arg17,Pro21,Pro27,Pro31]-h-amylin (peptide)
peptide: K([γGlu-C20 diacid])CNTATCATQRLARFLRHSSPNFGAIPSSTPVGSNTY-NH2
modifications: disulfide 2-7; N-terminus assumed
SMILES: CC[C@H](C)[C@H](NC(=O)[C@H](C)NC(=O)CNC(=O)[C@H](Cc1ccccc1)NC(=O)[C@H](CC(N)=O)NC(=O)[C@@H]1CCCN1C(=O)[C@H](CO)NC(=O)[C@H](CO)NC(=O)[C@H](Cc1c[nH]cn1)NC(=O)[C@H](CCCNC(=N)N)NC(=O)[C@H](CC(C)C)NC(=O)[C@H](Cc1ccccc1)NC(=O)[C@H](CCCNC(=N)N)NC(=O)[C@H](C)NC(=O)[C@H](CC(C)C)NC(=O)[C@H](CCCNC(=N)N)NC(=O)[C@H](CCC(N)=O)NC(=O)[C@@H](NC(=O)[C@H](C)NC(=O)[C@@H]1CSSC[C@H](NC(=O)[C@@H](N)CCCCNC(=O)CC[C@H](NC(=O)CCCCCCCCCCCCCCCCCCC(=O)O)C(=O)O)C(=O)N[C@@H](CC(N)=O)C(=O)N[C@@H]([C@@H](C)O)C(=O)N[C@@H](C)C(=O)N[C@@H]([C@@H](C)O)C(=O)N1)[C@@H](C)O)C(=O)N1CCC[C@H]1C(=O)N[C@@H](CO)C(=O)N[C@@H](CO)C(=O)N[C@H](C(=O)N1CCC[C@H]1C(=O)N[C@H](C(=O)NCC(=O)N[C@@H](CO)C(=O)N[C@@H](CC(N)=O)C(=O)N[C@H](C(=O)N[C@@H](Cc1ccc(O)cc1)C(N)=O)[C@@H](C)O)C(C)C)[C@@H](C)O
notes: also called compound 63
B5: N^ε1-[(4S)-4-carboxy-4-(19-carboxynonadecanoylamino)butanoyl]-[Arg14,Arg17,Pro21,Pro27,Pro34]-h-amylin (peptide)
peptide: K([γGlu-C20 diacid])CNTATCATQRLARFLRHSSPNFGAIPSSTNVGPNTY-NH2
modifications: disulfide 2-7; N-terminus assumed
SMILES: CC[C@H](C)[C@H](NC(=O)[C@H](C)NC(=O)CNC(=O)[C@H](Cc1ccccc1)NC(=O)[C@H](CC(N)=O)NC(=O)[C@@H]1CCCN1C(=O)[C@H](CO)NC(=O)[C@H](CO)NC(=O)[C@H](Cc1c[nH]cn1)NC(=O)[C@H](CCCNC(=N)N)NC(=O)[C@H](CC(C)C)NC(=O)[C@H](Cc1ccccc1)NC(=O)[C@H](CCCNC(=N)N)NC(=O)[C@H](C)NC(=O)[C@H](CC(C)C)NC(=O)[C@H](CCCNC(=N)N)NC(=O)[C@H](CCC(N)=O)NC(=O)[C@@H](NC(=O)[C@H](C)NC(=O)[C@@H]1CSSC[C@H](NC(=O)[C@@H](N)CCCCNC(=O)CC[C@H](NC(=O)CCCCCCCCCCCCCCCCCCC(=O)O)C(=O)O)C(=O)N[C@@H](CC(N)=O)C(=O)N[C@@H]([C@@H](C)O)C(=O)N[C@@H](C)C(=O)N[C@@H]([C@@H](C)O)C(=O)N1)[C@@H](C)O)C(=O)N1CCC[C@H]1C(=O)N[C@@H](CO)C(=O)N[C@@H](CO)C(=O)N[C@H](C(=O)N[C@@H](CC(N)=O)C(=O)N[C@H](C(=O)NCC(=O)N1CCC[C@H]1C(=O)N[C@@H](CC(N)=O)C(=O)N[C@H](C(=O)N[C@@H](Cc1ccc(O)cc1)C(N)=O)[C@@H](C)O)C(C)C)[C@@H](C)O
notes: also called compound 65
B6: N^ε1-[(4S)-4-carboxy-4-(19-carboxynonadecanoylamino)butanoyl]-[Arg17,Pro21,Pro27,Glu35]-h-amylin (peptide)
peptide: K([γGlu-C20 diacid])CNTATCATQRLANFLRHSSPNFGAIPSSTNVGSETY-NH2
modifications: disulfide 2-7; N-terminus assumed
SMILES: CC[C@H](C)[C@H](NC(=O)[C@H](C)NC(=O)CNC(=O)[C@H](Cc1ccccc1)NC(=O)[C@H](CC(N)=O)NC(=O)[C@@H]1CCCN1C(=O)[C@H](CO)NC(=O)[C@H](CO)NC(=O)[C@H](Cc1c[nH]cn1)NC(=O)[C@H](CCCNC(=N)N)NC(=O)[C@H](CC(C)C)NC(=O)[C@H](Cc1ccccc1)NC(=O)[C@H](CC(N)=O)NC(=O)[C@H](C)NC(=O)[C@H](CC(C)C)NC(=O)[C@H](CCCNC(=N)N)NC(=O)[C@H](CCC(N)=O)NC(=O)[C@@H](NC(=O)[C@H](C)NC(=O)[C@@H]1CSSC[C@H](NC(=O)[C@@H](N)CCCCNC(=O)CC[C@H](NC(=O)CCCCCCCCCCCCCCCCCCC(=O)O)C(=O)O)C(=O)N[C@@H](CC(N)=O)C(=O)N[C@@H]([C@@H](C)O)C(=O)N[C@@H](C)C(=O)N[C@@H]([C@@H](C)O)C(=O)N1)[C@@H](C)O)C(=O)N1CCC[C@H]1C(=O)N[C@@H](CO)C(=O)N[C@@H](CO)C(=O)N[C@H](C(=O)N[C@@H](CC(N)=O)C(=O)N[C@H](C(=O)NCC(=O)N[C@@H](CO)C(=O)N[C@@H](CCC(=O)O)C(=O)N[C@H](C(=O)N[C@@H](Cc1ccc(O)cc1)C(N)=O)[C@@H](C)O)C(C)C)[C@@H](C)O
notes: also called compound 27

Each binder was assayed against T1, human amylin 3(a) receptor (human …) (assay: cell-based or functional assay).

Binder | Ratio hCT/hAmylin funct. (hCTR EC50 over hAmylin-R EC50) | hAmylin-R funct. EC50 (pM)
B1 | 30.6 | 296 pM
B2 | 24.5 | 161 pM
B3 | 41.6 | 405 pM
B4 | 139 | 37 pM
B5 | 38.6 | 242 pM
B6 | 22.6 | 133 pM
